Results: patent US20100041596A1
Blank lines part the entries; values can stand above or below the substance they belong to.

Tests used:
[1] = biological target: p60ΔCD-HA KY19/20AA (Homo sapiens (Human)) (UniProt P19438); assay: cell staining, normalized to HA staining, p60ΔCD set at 1
[2] = biological target: p60ΔCD-HA E57A (Homo sapiens (Human)) (UniProt P19438); assay: as above
[3] = biological target: p60ΔCD-HA K32A (Homo sapiens (Human)) (UniProt P19438); assay: as above
[4] = biological target: p60ΔCD-HA (Homo sapiens (Human)) (UniProt P19438); assay: as above
[5] = biological target: p60ΔCD-HA T61A (Homo sapiens (Human)) (UniProt P19438); assay: as above
[6] = biological target: p60ΔCD-HA L112E (Homo sapiens (Human)) (UniProt P19438); assay: as above
[7] = biological target: p60ΔCD-HA Q24A (Homo sapiens (Human)) (UniProt P19438); assay: as above
[8] = biological target: p60ΔCD-HA W108T (Homo sapiens (Human)) (UniProt P19438); assay: as above
[9] = biological target: p60ΔCD-HA K19E (Homo sapiens (Human)) (UniProt P19438); assay: as above
[10] = biological target: p60ΔCD-HA R77A (Homo sapiens (Human)) (UniProt P19438); assay: as above
[11] = biological target: p60ΔCD-HA N66F (Homo sapiens (Human)) (UniProt P19438); assay: as above
[12] = biological target: p60ΔCD-HA DT49/50AA (Homo sapiens (Human)) (UniProt P19438); assay: as above
[13] = biological target: p6055-211 (Homo sapiens (Human)) (UniProt P19438); assay: as above
[14] = biological target: p60ΔCD-HA KY19/20AA (Homo sapiens (Human)) (UniProt P19438); assay: cell staining, % positive cells / % HA positive cells, p60ΔCD set at 1
[15] = biological target: p60ΔCD-HA E57A (Homo sapiens (Human)) (UniProt P19438); assay: as above
[16] = biological target: p60ΔCD-HA K32A (Homo sapiens (Human)) (UniProt P19438); assay: as above
[17] = biological target: p60ΔCD-HA (Homo sapiens (Human)) (UniProt P19438); assay: as above
[18] = biological target: p60ΔCD-HA T61A (Homo sapiens (Human)) (UniProt P19438); assay: as above
[19] = biological target: p60ΔCD-HA L112E (Homo sapiens (Human)) (UniProt P19438); assay: as above
[20] = biological target: p60ΔCD-HA Q24A (Homo sapiens (Human)) (UniProt P19438); assay: as above
[21] = biological target: p60ΔCD-HA W108T (Homo sapiens (Human)) (UniProt P19438); assay: as above
[22] = biological target: p60ΔCD-HA K19E (Homo sapiens (Human)) (UniProt P19438); assay: as above
[23] = biological target: p60ΔCD-HA R77A (Homo sapiens (Human)) (UniProt P19438); assay: as above
[24] = biological target: p60ΔCD-HA N66F (Homo sapiens (Human)) (UniProt P19438); assay: as above
[25] = biological target: p60ΔCD-HA DT49/50AA (Homo sapiens (Human)) (UniProt P19438); assay: as above
[26] = biological target: p6055-211 (Homo sapiens (Human)) (UniProt P19438); assay: as above

- clone 4.12 staining normalized against HA staining (relative to p60ΔCD) [1]: 0.14
- clone 4.12 staining normalized against HA staining (relative to p60ΔCD) [2]: 0.04
- clone 4.12 staining normalized against HA staining (relative to p60ΔCD) [3]: 0.01
- clone 4.12 staining normalized against HA staining (relative to p60ΔCD) [4]: 1
- clone 4.12 staining normalized against HA staining (relative to p60ΔCD) [5]: 1.28
- clone 4.12 staining normalized against HA staining (relative to p60ΔCD) [6]: 1.27
- clone 4.12 staining normalized against HA staining (relative to p60ΔCD) [7]: 0.97
- clone 4.12 staining normalized against HA staining (relative to p60ΔCD) [8]: 1.11
- clone 4.12 staining normalized against HA staining (relative to p60ΔCD) [9]: 1.07
- clone 4.12 staining normalized against HA staining (relative to p60ΔCD) [10]: 0.99
- clone 4.12 staining normalized against HA staining (relative to p60ΔCD) [11]: 0.04
- clone 4.12 staining normalized against HA staining (relative to p60ΔCD) [12]: 0.96
- clone 4.12 staining normalized against HA staining (relative to p60ΔCD) [13]: 0.02
Substance: p60-specific monoclonal antibody clone 4.12 (Zymed)

- MAB225 staining normalized against HA staining (relative to p60ΔCD) [14]: 0.59
- MAB225 staining normalized against HA staining (relative to p60ΔCD) [15]: 1.68
- MAB225 staining normalized against HA staining (relative to p60ΔCD) [16]: 0.36
- MAB225 staining normalized against HA staining (relative to p60ΔCD) [17]: 1
- MAB225 staining normalized against HA staining (relative to p60ΔCD) [18]: 1.42
- MAB225 staining normalized against HA staining (relative to p60ΔCD) [19]: 1.31
- MAB225 staining normalized against HA staining (relative to p60ΔCD) [20]: 1.06
- MAB225 staining normalized against HA staining (relative to p60ΔCD) [21]: 1.32
- MAB225 staining normalized against HA staining (relative to p60ΔCD) [22]: 1.05
- MAB225 staining normalized against HA staining (relative to p60ΔCD) [23]: 1.06
- MAB225 staining normalized against HA staining (relative to p60ΔCD) [24]: 0.67
- MAB225 staining normalized against HA staining (relative to p60ΔCD) [25]: 1.16
- MAB225 staining normalized against HA staining (relative to p60ΔCD) [26]: 0.87
Substance: p60-specific monoclonal antibody clone MAB225 (R&D Systems)
